Molecular target: T1, recombinant human complement factor H (CFH), isolated from moss (human, UniProt P08603 19-1231)
T1 construct: also called moss-FH; recombinant CFH
Experiment: affinity chromatography, ligand on Praesto Epoxy 85, CFH supernatant bound in PBS pH 7.3, eluted at pH 3.5
Method: Coupling parameter. Proteins were purified to homogeneity and coupled to resin for AIC experiments. […] Variants were successfully coupled to epoxy-activated Praesto 85 resin.
AIC experiments. Capturing and Elution. For initial column performance tests, resins were packed into superformance 50-5 column housing. Phosphate buffered saline pH 7.3 (PBS) was used to equilibrate the column, followed by applying of 10 mL of recombinant CFH expression supernatant (titer: 0.47 mg/mL) at 6 min residence time. Resin was then washed with PBS for 15 column volumes. Elution was performed at pH 3.5 using 100 mM Citric acid buffer followed by stripping of residual bound CFH at pH 2.0. Elution at pH 3.5 and pH 2.0 was calculated by UV 280 nm absorption.

T1 sequence (P08603 19-1231 limits assumed): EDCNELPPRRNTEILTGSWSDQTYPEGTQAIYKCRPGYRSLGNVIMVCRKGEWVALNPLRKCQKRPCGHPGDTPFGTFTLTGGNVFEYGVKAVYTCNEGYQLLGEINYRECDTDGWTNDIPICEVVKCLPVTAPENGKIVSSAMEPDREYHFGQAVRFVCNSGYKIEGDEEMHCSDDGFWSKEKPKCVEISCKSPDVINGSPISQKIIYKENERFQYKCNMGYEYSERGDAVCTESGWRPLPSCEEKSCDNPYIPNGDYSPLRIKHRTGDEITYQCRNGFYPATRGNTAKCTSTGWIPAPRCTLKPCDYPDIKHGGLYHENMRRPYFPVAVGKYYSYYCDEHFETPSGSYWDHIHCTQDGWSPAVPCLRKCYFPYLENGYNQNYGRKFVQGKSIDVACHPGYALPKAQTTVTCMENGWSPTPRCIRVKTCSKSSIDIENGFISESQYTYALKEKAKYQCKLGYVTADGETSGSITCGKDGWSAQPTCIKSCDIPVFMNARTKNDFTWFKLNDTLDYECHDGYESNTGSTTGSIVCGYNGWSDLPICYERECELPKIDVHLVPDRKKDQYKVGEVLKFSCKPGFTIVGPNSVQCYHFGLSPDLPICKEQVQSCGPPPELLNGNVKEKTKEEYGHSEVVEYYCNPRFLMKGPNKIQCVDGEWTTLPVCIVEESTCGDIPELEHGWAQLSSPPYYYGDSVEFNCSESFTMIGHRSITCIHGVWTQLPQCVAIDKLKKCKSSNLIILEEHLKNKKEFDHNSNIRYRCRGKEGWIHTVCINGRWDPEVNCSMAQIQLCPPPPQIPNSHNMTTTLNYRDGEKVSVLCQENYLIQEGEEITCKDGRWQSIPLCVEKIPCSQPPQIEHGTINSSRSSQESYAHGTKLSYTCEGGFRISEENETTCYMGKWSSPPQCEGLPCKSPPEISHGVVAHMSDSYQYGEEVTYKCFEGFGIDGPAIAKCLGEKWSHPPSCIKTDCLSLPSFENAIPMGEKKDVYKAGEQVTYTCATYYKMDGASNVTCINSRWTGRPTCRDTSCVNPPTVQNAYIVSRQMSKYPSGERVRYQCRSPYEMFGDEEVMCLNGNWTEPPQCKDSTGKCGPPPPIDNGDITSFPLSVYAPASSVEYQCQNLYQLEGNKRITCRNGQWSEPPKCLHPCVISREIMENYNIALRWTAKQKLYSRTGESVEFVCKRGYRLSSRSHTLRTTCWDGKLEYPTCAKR

| Binder | Step Yield of CFH at pH 3.5 (percentage elution) |
| --- | --- |
| CFH binding protein of SEQ ID NO: 20 (CID 209864) (designed binder, Coupled to Praesto Epoxy 85 resin) IAAKFDEAQQAAFYEILHLPNLTELQRNHFIQTLRDDPSVSLWVLGLAQLLNDSQAPKIAAKFDEAQQHAFYTILHLENLTEEQRNAFIQSLRDDPSVSLEVLGEAIKLNISQAPK | 96% |
| CFH binding protein of SEQ ID NO: 5 (CID 209447) (designed binder, Coupled to Praesto Epoxy 85 resin) NAAEADDAQVSAAMEIIMLPNLTLEQAHSFIESLYRDPSVSKEVLGEAQKLNDSQAPK | 91% |
